Experimental data published in US11370837 (dated 2022).
Residue numbers refer to the chain shown, from its start.

T1: human TIGIT-Fc (human, UniProt Q495A1)
T1 chain: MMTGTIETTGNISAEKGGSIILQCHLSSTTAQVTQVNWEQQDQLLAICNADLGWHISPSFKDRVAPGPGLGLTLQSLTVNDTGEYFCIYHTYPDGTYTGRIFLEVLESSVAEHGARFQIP

B1: ADI-27243 Fab (antibody, V domains shown)
VH: QLQLQESGPGLVKPSETLSLTCTVSGGSISSSRYYWGWIRQPPGKGLEWIGSIYYSGSTYYNPSLKSRVTISVDTSKNQFSLKLSSVTAADTAVYYCARDGLYHTPEYFQHWGQGTLVTVSS
VL: EIVLTQSPATLSLSPGERATLSCRASQSVSSYLAWYQQKPGQAPRLLIYDASNRATGIPARFSGSGSGTDFTLTISSLEPEDFAVYYCQQRFAFPYTFGGGTKVEIK
B2: ADI-30268 Fab (antibody, V domains shown)
VH: QVQLVQSGAEVKKPGASVKVSCKASGYTFGSYYMGWVRQAPGQGLEWMGIIDPSGGRTSYARKFQGRVTMTRDTSTSTVYMELSSLRSEDTAVYYCARARTPSSWPYGMDVWGQGTTVTVSS
VL: DIQMTQSPSSLSASVGDRVTITCRASQSINSYLNWYQQKPGKAPKLLIYAASSLQSGVPSRFSGSGSGTDFTLTISSLQPEDFATYYCQQSLLTPFTFGGGTKVEIK
B3: ADI-30286 Fab (antibody, V domains shown)
VH: EVQLLESGGGLVQPGGSLRLSCAASGFTFGPYGMSWVRQAPGKGLEWVSAISGSGASTWYADSVKGRFTISRDNSKNTLYLQMNSLRAEDTAVYYCAKDPGTHYSGYYYIWRYWGQGTLVTVSS
VL: EIVMTQSPATLSVSPGERATLSCRASQSVSSNLAWYQQKPGQAPRLLIYSASTRATGIPARFSGSGSGTEFTLTISSLQSEDFAVYYCQQYVPHPPFTFGGGTKVEIK
B4: ADI-30272 Fab (antibody, V domains shown)
VH: QVQLVQSGAEVKKPGASVKVSCKASGYTFTEYYMHWVRQAPGQGLEWMGIISPSAGSTSYAQKFQGRVTMTRDTSTSTVYMELSSLRSEDTAVYYCARDHDIAAAGRLADYWGQGTLVTVSS
VL: DIQMTQSPSSVSASVGDRVTITCRASQGISSWLAWYQQKPGKAPKLLISAASSLQSGVPSRFSGSGSGTDFTLTISSLQPEDFATYYCQQAVILPITFGGGTKVEIK
B5: ADI-27301 Fab (antibody, V domains shown)
VH: QLQLQESGPGLVKPSETLSLTCTVSGGSISSSSYYWGWIRQPPGKGLEWIGSIYYSGSTYYNPSLKSRVTISVDTSKNQFSLKLSSVTAADTAVYYCAREAGRGTTGLLFDYWGQGTLVTVSS
VL: DIQMTQSPSTLSASVGDRVTITCRASQSISSWLAWYQQKPGKAPKLLIYKASSLESGVPSRFSGSGSGTEFTLTISSLQPDDFATYYCQQYGILPRTFGGGTKVEIK
B6: ADI-27291 Fab (antibody, V domains shown)
VH: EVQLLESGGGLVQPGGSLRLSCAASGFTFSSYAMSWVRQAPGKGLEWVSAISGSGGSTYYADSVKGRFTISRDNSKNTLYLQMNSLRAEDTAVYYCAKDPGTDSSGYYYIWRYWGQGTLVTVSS
VL: B3 VL
B7: ADI-30336 Fab (antibody, V domains shown)
VH: B1 VH
VL: B1 VL with F94H
B8: ADI-30293 Fab (antibody, V domains shown)
VH: EVQLVESGGGLVQPGGSLRLSCAASGFTFSSYSMNWVRQAPGKGLEWVSYISSSGTINYADSVKGRFTISRDNAKNSLYLQMNSLRAEDTAVYYCARHRIADSPSRAFDIWGQGTMVTVSS
VL: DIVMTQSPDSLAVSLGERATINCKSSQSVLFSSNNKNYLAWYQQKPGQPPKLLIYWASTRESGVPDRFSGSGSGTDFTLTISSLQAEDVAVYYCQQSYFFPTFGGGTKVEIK
B9: ADI-27278 Fab (antibody, V domains shown)
VH: EVQLVESGGGLVQPGGSLRLSCAASGFTFSSYSMNWVRQAPGKGLEWVSYISGSSSTIYYADSVKGRFTISRDNAKNSLYLQMNSLRAEDTAVYYCARHRIADSPSRAFDIWGQGTMVTVSS
VL: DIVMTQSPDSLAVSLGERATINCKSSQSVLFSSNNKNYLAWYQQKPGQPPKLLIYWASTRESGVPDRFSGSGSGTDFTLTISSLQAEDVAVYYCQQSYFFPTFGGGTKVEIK
B10: ADI-30278 Fab (antibody, V domains shown)
VH: B4 VH with S59K, A103R, A104L
VL: B4 VL

Target: T1, human TIGIT-Fc
Assay: BLI

Row | Kd [nM] | Binder
1 | 9.47 | B1
2 | 0.571 | B2
3 | 0.436 | B3
4 | 1.19 | B4
5 | 8.01 | B5
6 | 6.48 | B6
7 | 0.566 | B7
8 | 3.49 | B8
9 | 10.9 | B9
10 | 0.243 | B10
